# The DeepSol protein solubility set
# Assay: soluble on expression in E. coli; label from the status in PepcDB or PDB records
row,Sequence,soluble on expression in E. coli
1,LPSSPPAEEAIIDWPVALRQSANKEDLAKEMLGMLVDYLREVETVVNTALEDEEYPASDLLHHIHKLHGSCSYSGVPRLRKICASLEQALRNGASIDELEPELFELQDEMAKVLEASRDYLN,not soluble
2,LQTLPPVQLAQKYFQIFSEEKDPLWQDPCEDKRHKDIWSKEKTCDRFPKLLIIGPQKTGTTALYLFLGMHPDLSSNYPSSETFEEIQFFNGHNYHKGIDWYMEFFPIPSNTTSDFYFEKSANYFDSEVAPRRAAALLPKAKVLTILINPADRAYSWYQHQRAHDDPVALKYTFHEVITAGSDASSKLRALQNRCLVPGWYATHIERWLSAYHANQILVLDGKLLRTEPAKVMDMVQKFLGVTNTIDYHKTLAFDPKKGFWCQLLEGGKTKCLGKSKGRKYPEMDLDSRAFLKDYYRDHNIELSKLLYKMGQTLPTWLREDLQNTR,soluble
3,LRASEIMNRTLDLQIIMDDLLNLLLKEFKLDLAVIRLVDEKGVLRVRSYSGKGIAGIAGKDWEPEIETYIGEAFLSNRLQFVNDTQYMTKPLTRELMQKEGIKSFAHIPISRKGEPPFGILSVFSRTIVGLFNEPFLNLLESLAGQLAQAVKIVTEMEAKEREREEKERILLENA,soluble
4,LSAGALKATASQQDKPESQYGLAGQLQAAAGQQGVTAQQQTRAEAAQQAQLPLQLTKELANEQVAEKVQMMMSKNLKNLDIRLDPPELGRMQIRMTMNNDLANVHFTVTNPQARDIIEQTLPRLREMLAQQGMQLADSSVQQQS,not soluble
5,LSIPEDYQVRLQPTRVAGSYPLVRLEFTGATVDAPLMTQIARKYNIDVSILSSDLDYAGGVKFGMMVAEIFGNADDDEAAIRYLRENNVKVEVLGYVL,not soluble
6,LTCYGDSGQPVDWFVVYKLPALRGSGEAAQRGLQYKYLDESSGGWRDGRALINSPEGAVGRSLQPLYRSNTSQLAFLLYNDQPPQPSKAQDSSMRGHTKGVLLLDHDGGFWLVHSVPNFPPPASSAAYSWPHSACTYGQTLLCVSFPFAQFSKMGKQLTYTYPWVYNYQLEGIFAQEFPDLENVVKGHHVSQEPWNSSITLTSQAGAVFQSFAKFSKFGDDLYSGWLAAALGTNLQVQFWHKTVGILPSNCSDIWQVLNVNQIAFPGPAGPSFNSTEDHSKWCVSPKGPWTCVGDMNRNQGEEQRGGGTLCAQLPALWKAFQPLVKNYQPCNGMARKPSRAYKI,soluble
7,LTFSLNFATSSKDSYGTGWLIDWKGDENKPSNTDPFLIYLATNLHVVDALRNPQDYEPYNKDSNGQDYGNRDITHFFALGKYTD,not soluble
8,LTPIVGPSNFRVQVAADMDFSQVEETREILDNAPVVRNEHTIQNNSIDQIALGVPGSLSNQPPVTGEAATNDSQNTNARSEVNRQYAVGSSVRRTQYQQGQIEKLSVSVLLNSKASPDGVAWSDADKAQISTMITDAVGISAARGDSLSLMSFNF,not soluble
9,MAAASFAPFQDLANLLIPYTHAEKIDGSHDVSHLLRVWKNVCAIRDREGGDARVLMAATLLHDCVSVEKDSPFRAGASRLAAARARELLGDMGWDEESIASVAHAVEAHSFSAAITPVSLEAKILQDADRLDSLGMIGVARTFYVSGRMGKYLYEPNDPHASQRPYDDKRFAVDHFHTKLLHLADGFQTRTGTQMAKVRHDRLKRFLDELMEEIDASRPLEHHHHHH,not soluble
10,MAAEEATEFYLRYYVGHKGKFGHEFLEFEFREDGKLRYANNSNYKNDTIIRKEVFLTPAVLKECKRIVSESEILKEDDNNWPEPDRVGKQELEIVLGNEHISFATSKIGSLVDCQSSNDPEGLRIFYYLVQDLKCLVFSLISLHFKIKPILEHHHHHH,not soluble
11,MAAEIKQGDHKFYVGDDENNPKAVITFKEVDNNEIDIDHTGVSDELGGQGLGKKLVNRVVEHARENNLKIIASCPFAKNVLEKDDHAQDVYLGLEHHHHHH,soluble
12,MAAELVQLNPGQQVERWSIEKKLGEGGFGAVYRVFDATGKYAMKVEGANEQIQVLKLEVSVLNKLSKRGNRHFCKIEDKGRFGNFNYVVMTLVGKSLQDLNKAGVGGHMSMGCSIGIGIQSLEALEDLHNIGYLHRDVKPGNYTIGRPELNEIRKVYILDFGMCRKFTGNDGTIRKPRQAAGFRGTVKYAPISCHLQRELCRKDDLETWMYMQVELSHGTIPWQYISDMNQVGQAKQAIRNNLGSLFPPPCPHQFQDIMRMVDAMKYYDAPNYQAIYGMMRQAYGACGSNENAPYDWENGGPAAYLLH,not soluble
13,MAAERKTKLSKNLLRMKFMQRGLDSETKKQLEEEEKKIISEEHWYLDLPELKEKESFIIEEQSFLLCEDLLYGRMSFRGFNPEVEKLMLQMNAKHKAEEVEDETVELDVSDEEMARRYETLVGTIGKKFARKRDHANYEEDENGDITPIKAKKMFLKPQD,soluble
14,MAAHSFPLLRLPPKNLASVLRQVEIIEQIGLSLLSNKTKEYIRKFCDFKGFELSVWLHPYAVELELFKNGEGATHCSFRDGRACEHNEYPDGFTFDASQFFDMKSCLKHLLYILNPSKIAFLFYIQSNEVSDESQFQMTVDCLKGVKILKFSAKCIPQMNHIVRLVNAFPQTNRLSLVKNSNQPFQLSTLRQILHRKIQKLNLVIDITLNELLLNNSATSDFYSERLRGKDINLFLKHWAAGLKPELEYISFQISAVNFVESTILAGIPH,not soluble
15,MAAKPKLYYFNGRGRMESIRWLLAAAGVEFEEEFLETREQYEKMQKDGHLLFGQVPLVEIDGMMLTQTRAILSYLAAKYNLYGKDLKERVRIDMYADGTQDLMMMIAVAPFKTPKEKEESYDLILSRAKTRYFPVFEKILKDHGEAFLVGNQLSWADIQLLEAILMVEELSAPVLSDFPLLQAFKTRISNIPTIKKFLQPGSQRKPPPDGPYVEVVRIVLKF,soluble
16,MAALIRNLGARAAVAALSAKHVVPAAGSTALRMASTTPVEPKKADKPTVRQPDAVARSHLSDFGRYVAECLPKYVQKVQLTAGDELEVLIAPEGVVPVLQFLKDHHQAQFTNLVDIAGVDVPCRKNRFEVVYNLLSLRYNSRIRVKTYTDELTPLDSACEVHKAANWYEREIWDMYGVFFANHPDLRRILTDYGFEGHPQRRDFPLSGYVELRYDDEKKRVVCEPLELAQEFRKFDLSAPWEQFPNFRNANPPAEVVPPQAPAKK,not soluble
17,MAANKPKGQNSLALHKVIMVGSGGVGKSALTLQFMYDEFVEDYEPTKADSYRKKVVLDGEEVQIDILDTAGQEDYAAIRDNYFRSGEGFLCVFSITEMESFAATADFREQILRVKEDENVPFLLVGNKSDLEDKRQVSVEEAKNRAEQWNVNYVETSAKTRANVDKVFFDLMREIRARKMEDSKEKNGKKKRKSLAKRIRERCCIL,soluble
18,MAASAWCCLRCCRDGGTGHIPLKEMPAVQLDTQHMGTDVVIVKNGRRICGTGGCLASAPLHQNKSYFEFKIQSTGIWGIGVATQKVNLNQIPLGRDMHSLVMRNDGALYHNNEEKNRLPANSLPQEGDVVGITYDHVELNVYLNGKNMHCPASGIRGTVYPVVYVDDSAILDCQFSEFYHTPPPGFEKILFEQQIF,soluble
19,MAASTSSSSSSSSSSLSSPSPCTWRYMTFTSFHGPDVRNTFLSHLRKQFNTNGITMFDDQRMERSQTLAPTLTQAIRESKIYIVLLSKNYASSSWCLDELLEILNCKEKRGQRVMTIFYGVNPSDVRKQTGEFGIAFNETCARKTEEERRKWSHALTCVGNITGVHVQDRDDEANMIEKIATDVSEKLNATESKDFDEMVGIKAHLTKIESLLSLDYDKVKIVGISGPAGIGKSTIARALHNLLSSSFHLSCFMENLISQSNPHSSLEYSSKLSLQEQLLSQVLNEKDIRIRHLGAIQERLHDQRVLIILDDVTSLEQLEVLANIKWYGPGSRIIVITKKKDILVQHGICDIYHVGFPTDADALKIFCLSAYRQTSPPDGSMKIHECEMFIKICGNLPLHLHVLGSALRGRSYGRVQSLCNLVSLADFV,not soluble
20,MAATFPLSAGTYSINGRKYRKTAYNLKADTSFDLNTDTTFADTPDIYEDEASADCFAPPGLPELRKRAAKAKIVAKAVETSSKEPEPTEDDRIKVIGGKKWISSINVAPCFIGKLIGTNRRTLNSLENETQCRVKTPRRNENIACEISSIVSLECVQRCLDRLEIFIDDSRKTARVNHFVALPCDQHEVQENFNIFKQMVMESDHFDSSCKNSQLFTKPTRLHLTLSVARIFDDMDLQKAVGAFEILEKEIRQIKDSKPLIADIQGIDMMNDDPSQVFVLYAKVKGDKVQEVANYVNRRLIELGVSSKNEHDNGSDAVKLHMTLMNSRYVTQSEKSGKSKEAALFDAKQVLEDLKDSYFGTFELKEVNFDVKKFKQRI,not soluble
21,MAATITDDIVATVLESIEEKSYEDEKEKAGMIKDEANQFFKDQVYDVAADLYSVAIEIHPTAVLYGNRAQAYLKKELYGSALEDADNAIAIDPSYVKGFYRRATANMALGRFKKALTDYQAVVKVCPNDKDARAKFDECSKIVRRQKFEAAISTDHDKKTVAETLDINAMAIEDSYDGPRLEDKITKEFVLQLIKTFKNQQKLHKKYAFKMLLEFYNYVKSLPTMVEITVPTGKKFTICGDVHGQFYDLCNIFEINGYPSETNPYLFNGDFVDRGSFSVETIFTMIGFKLLYPNHFFMSRGNHESDVMNKMYGFEGEVKAKYTQQMCDMFTETFCWLPLCHLINEKIFVCHGGLFKEDGVTLEDIRKTDRNRQPPDEGIMCDLLWSDPQPINGRSPSKRGVGCQFGPDVTSKWCETNGIEYVVRSHEVKPEGYEMHHNGQCFTVFSAPNYCDQMNNKGAFITITGDNLTPRFTPFDAVPHPKLPPMAYANSLFGFN,not soluble
22,MAAVDSFQLLYREIARSCSGYVETLALVGACYMASKTVIFMRDCYSLIRLYFVPRLVRHRDLSQQYGQWAIICGASEAIAKAYAEELARHGICVILISKDLSSVSDTARLISNNYGVEAICIEADFNQGPSACKPIKDAISSKDIGFIVNSFDGTLEISQNFLELSESVLWGTIDRNIAATTLVTRLALPAMMERGRGAVVNISSGHCFHPIPRKAAFSASTAFLDNFSRSLQYEYGDQGVFVQSLLPFRVASQRPEGSAPPASWLVPSPQVYASHALSTLGISHRTTGYWPHSMQLGLVKMMPEWVWMLGSRVFTMAT,soluble
23,MACQTGIRANAALRNALNLGKQAKLRLIKIVVNNEEMTPNYEFAGTANWRDDWRACLPDCVDAYEPCFILFRLNTITEWVLITFVDDRAPVREKMLLAATCATFKSEFGQCYIEHEKHVTDLKDLTLNAFEAWLKAKTELGPMSEVERELHNAQQERAAIAHAGPQHMKGVAFPVDRNAEEALRQLASQKLSFVQLSVDTLNEAIKLEGTLESLEPSQLASKVPRDKPRYTFYNFDHTWEGVPQQCTLFIYSLPSSGSSIKERMLYSSCKGPFLSAAQNQYGVVITNKMEVDARDDLSEKALLEVIHPLPVEAPKQFSRPAPPRAGPRRITKV,not soluble
